Results as given in article PMC3642142.

Molecular target: IAEDANS-labeled K75C mutant calmodulin (UniProt P0DP23)
Experiment: other fluorescence titration; IAEDANS emission (excitation 340 nm, emission 475 nm) of about 1 nM I-CaM; LSEL15 titrated; 10 mM MOPS pH 7.4, 100 mM NaCl, 0.3 mM CaCl2, 0.1 mg/ml BSA

Peptide LSEL15 (L-selectin residues Ala311-Lys325)
Kd: 3.8 nM
